{
  "source": "patent US20190142860A1",
  "about": "“NUCLEIC ACID BASED TIA-1 INHIBITORS” (Aquinnah Pharmaceuticals, Inc., priority 2015, published 2019)",
  "key": {"[1]": {"biological_target": "Nucleolysin TIA-1 (endogenous mouse TIA1) (mouse) (UniProt P52912)", "sequence (P52912 whole entry)": "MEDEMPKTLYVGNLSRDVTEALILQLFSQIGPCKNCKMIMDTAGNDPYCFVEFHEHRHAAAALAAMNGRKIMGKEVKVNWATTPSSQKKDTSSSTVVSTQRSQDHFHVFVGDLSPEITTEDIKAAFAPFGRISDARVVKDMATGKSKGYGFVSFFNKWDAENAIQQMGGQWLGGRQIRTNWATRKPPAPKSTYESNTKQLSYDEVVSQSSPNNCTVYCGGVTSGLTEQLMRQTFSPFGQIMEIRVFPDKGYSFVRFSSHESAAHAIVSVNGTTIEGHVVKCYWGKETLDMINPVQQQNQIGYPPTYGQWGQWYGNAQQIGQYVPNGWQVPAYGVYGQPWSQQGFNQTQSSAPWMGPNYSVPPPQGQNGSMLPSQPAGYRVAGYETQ", "test": "TIA1 IP-MS, WT1 cortex"}, "[2]": {"biological_target": "Nucleolysin TIA-1 (endogenous mouse TIA1) (mouse) (UniProt P52912)", "test": "TIA1 IP-MS, WT2 cortex"}, "[3]": {"biological_target": "Nucleolysin TIA-1 (endogenous mouse TIA1) (mouse) (UniProt P52912)", "test": "TIA1 IP-MS, WT3 cortex"}, "[4]": {"biological_target": "Nucleolysin TIA-1 (endogenous mouse TIA1) (mouse) (UniProt P52912)", "test": "TIA1 IP-MS, tau KO 1 cortex"}, "[5]": {"biological_target": "Nucleolysin TIA-1 (endogenous mouse TIA1) (mouse) (UniProt P52912)", "test": "TIA1 IP-MS, tau KO 2 cortex"}, "[6]": {"biological_target": "Nucleolysin TIA-1 (endogenous mouse TIA1) (mouse) (UniProt P52912)", "test": "TIA1 IP-MS, tau KO 3 cortex"}},
  "data": [
    {"substance": "Serine/arginine-rich splicing factor 2 (from UniProt Q62093 2-221)", "values": [
      {"measurement": "total ion current (normalized to TIA1 = 1000)", "setting": "[1]", "value": 0},
      {"measurement": "total ion current (normalized to TIA1 = 1000)", "setting": "[2]", "value": 306},
      {"measurement": "total ion current (normalized to TIA1 = 1000)", "setting": "[3]", "value": 71.1},
      {"measurement": "total ion current (normalized to TIA1 = 1000)", "setting": "[4]", "value": 0},
      {"measurement": "total ion current (normalized to TIA1 = 1000)", "setting": "[5]", "value": 67.1},
      {"measurement": "total ion current (normalized to TIA1 = 1000)", "setting": "[6]", "value": 0}
    ]},
    {"substance": "Serine/arginine-rich splicing factor 4 (from UniProt Q8VE97 1-489)", "values": [
      {"measurement": "total ion current (normalized to TIA1 = 1000)", "setting": "[1]", "value": 0},
      {"measurement": "total ion current (normalized to TIA1 = 1000)", "setting": "[2]", "value": 41.6},
      {"measurement": "total ion current (normalized to TIA1 = 1000)", "setting": "[3]", "value": 0},
      {"measurement": "total ion current (normalized to TIA1 = 1000)", "setting": "[4]", "value": 0},
      {"measurement": "total ion current (normalized to TIA1 = 1000)", "setting": "[5]", "value": 0},
      {"measurement": "total ion current (normalized to TIA1 = 1000)", "setting": "[6]", "value": 0}
    ]},
    {"substance": "Serine/threonine-protein phosphatase PP1-beta catalytic subunit (from UniProt P62141 2-327)", "values": [
      {"measurement": "total ion current (normalized to TIA1 = 1000)", "setting": "[1]", "value": 3.65},
      {"measurement": "total ion current (normalized to TIA1 = 1000)", "setting": "[2]", "value": 136},
      {"measurement": "total ion current (normalized to TIA1 = 1000)", "setting": "[3]", "value": 79.5},
      {"measurement": "total ion current (normalized to TIA1 = 1000)", "setting": "[4]", "value": 99.4},
      {"measurement": "total ion current (normalized to TIA1 = 1000)", "setting": "[5]", "value": 24.6},
      {"measurement": "total ion current (normalized to TIA1 = 1000)", "setting": "[6]", "value": 0}
    ]},
    {"substance": "Sodium/potassium-transporting ATPase subunit beta-2 (from UniProt P14231 1-290)", "values": [
      {"measurement": "total ion current (normalized to TIA1 = 1000)", "setting": "[1]", "value": 0},
      {"measurement": "total ion current (normalized to TIA1 = 1000)", "setting": "[2]", "value": 15.1},
      {"measurement": "total ion current (normalized to TIA1 = 1000)", "setting": "[3]", "value": 25.3},
      {"measurement": "total ion current (normalized to TIA1 = 1000)", "setting": "[4]", "value": 0},
      {"measurement": "total ion current (normalized to TIA1 = 1000)", "setting": "[5]", "value": 30.7},
      {"measurement": "total ion current (normalized to TIA1 = 1000)", "setting": "[6]", "value": 0}
    ]},
    {"substance": "Solute carrier family 2, facilitated glucose transporter member 3 (from UniProt P32037 1-493)", "values": [
      {"measurement": "total ion current (normalized to TIA1 = 1000)", "setting": "[1]", "value": 0},
      {"measurement": "total ion current (normalized to TIA1 = 1000)", "setting": "[2]", "value": 107},
      {"measurement": "total ion current (normalized to TIA1 = 1000)", "setting": "[3]", "value": 190},
      {"measurement": "total ion current (normalized to TIA1 = 1000)", "setting": "[4]", "value": 0},
      {"measurement": "total ion current (normalized to TIA1 = 1000)", "setting": "[5]", "value": 90.2},
      {"measurement": "total ion current (normalized to TIA1 = 1000)", "setting": "[6]", "value": 0}
    ]},
    {"substance": "Sorting and assembly machinery component 50 homolog (from UniProt Q8BGH2 1-469)", "values": [
      {"measurement": "total ion current (normalized to TIA1 = 1000)", "setting": "[1]", "value": 0},
      {"measurement": "total ion current (normalized to TIA1 = 1000)", "setting": "[2]", "value": 22.7},
      {"measurement": "total ion current (normalized to TIA1 = 1000)", "setting": "[3]", "value": 0},
      {"measurement": "total ion current (normalized to TIA1 = 1000)", "setting": "[4]", "value": 0},
      {"measurement": "total ion current (normalized to TIA1 = 1000)", "setting": "[5]", "value": 0},
      {"measurement": "total ion current (normalized to TIA1 = 1000)", "setting": "[6]", "value": 0}
    ]},
    {"substance": "Splicing factor 45 (from UniProt Q8JZX4 2-405)", "values": [
      {"measurement": "total ion current (normalized to TIA1 = 1000)", "setting": "[1]", "value": 1.59},
      {"measurement": "total ion current (normalized to TIA1 = 1000)", "setting": "[2]", "value": 0},
      {"measurement": "total ion current (normalized to TIA1 = 1000)", "setting": "[3]", "value": 0},
      {"measurement": "total ion current (normalized to TIA1 = 1000)", "setting": "[4]", "value": 0},
      {"measurement": "total ion current (normalized to TIA1 = 1000)", "setting": "[5]", "value": 0},
      {"measurement": "total ion current (normalized to TIA1 = 1000)", "setting": "[6]", "value": 0}
    ]},
    {"substance": "Splicing factor U2AF 65 kDa subunit (from UniProt P26369 2-475)", "values": [
      {"measurement": "total ion current (normalized to TIA1 = 1000)", "setting": "[1]", "value": 0},
      {"measurement": "total ion current (normalized to TIA1 = 1000)", "setting": "[2]", "value": 162},
      {"measurement": "total ion current (normalized to TIA1 = 1000)", "setting": "[3]", "value": 0},
      {"measurement": "total ion current (normalized to TIA1 = 1000)", "setting": "[4]", "value": 0},
      {"measurement": "total ion current (normalized to TIA1 = 1000)", "setting": "[5]", "value": 107},
      {"measurement": "total ion current (normalized to TIA1 = 1000)", "setting": "[6]", "value": 0}
    ]},
    {"substance": "Stress-70 protein, mitochondrial (from UniProt P38647 47-679)", "values": [
      {"measurement": "total ion current (normalized to TIA1 = 1000)", "setting": "[1]", "value": 0},
      {"measurement": "total ion current (normalized to TIA1 = 1000)", "setting": "[2]", "value": 173},
      {"measurement": "total ion current (normalized to TIA1 = 1000)", "setting": "[3]", "value": 77.5},
      {"measurement": "total ion current (normalized to TIA1 = 1000)", "setting": "[4]", "value": 0},
      {"measurement": "total ion current (normalized to TIA1 = 1000)", "setting": "[5]", "value": 101},
      {"measurement": "total ion current (normalized to TIA1 = 1000)", "setting": "[6]", "value": 0}
    ]},
    {"substance": "Succinyl-CoA ligase [ADP-forming] subunit beta, mitochondrial (from UniProt Q9Z2I9 54-463)", "values": [
      {"measurement": "total ion current (normalized to TIA1 = 1000)", "setting": "[1]", "value": 0},
      {"measurement": "total ion current (normalized to TIA1 = 1000)", "setting": "[2]", "value": 61.7},
      {"measurement": "total ion current (normalized to TIA1 = 1000)", "setting": "[3]", "value": 86.3},
      {"measurement": "total ion current (normalized to TIA1 = 1000)", "setting": "[4]", "value": 0},
      {"measurement": "total ion current (normalized to TIA1 = 1000)", "setting": "[5]", "value": 49},
      {"measurement": "total ion current (normalized to TIA1 = 1000)", "setting": "[6]", "value": 0}
    ]},
    {"substance": "Succinyl-CoA ligase [ADP/GDP-forming] subunit alpha, mitochondrial (from UniProt Q9WUM5 35-346)", "values": [
      {"measurement": "total ion current (normalized to TIA1 = 1000)", "setting": "[1]", "value": 0},
      {"measurement": "total ion current (normalized to TIA1 = 1000)", "setting": "[2]", "value": 204},
      {"measurement": "total ion current (normalized to TIA1 = 1000)", "setting": "[3]", "value": 54.8},
      {"measurement": "total ion current (normalized to TIA1 = 1000)", "setting": "[4]", "value": 0},
      {"measurement": "total ion current (normalized to TIA1 = 1000)", "setting": "[5]", "value": 26.9},
      {"measurement": "total ion current (normalized to TIA1 = 1000)", "setting": "[6]", "value": 0}
    ]},
    {"substance": "Synaptosomal-associated protein 25 (from UniProt P60879 1-206)", "values": [
      {"measurement": "total ion current (normalized to TIA1 = 1000)", "setting": "[1]", "value": 0},
      {"measurement": "total ion current (normalized to TIA1 = 1000)", "setting": "[2]", "value": 165},
      {"measurement": "total ion current (normalized to TIA1 = 1000)", "setting": "[3]", "value": 0},
      {"measurement": "total ion current (normalized to TIA1 = 1000)", "setting": "[4]", "value": 0},
      {"measurement": "total ion current (normalized to TIA1 = 1000)", "setting": "[5]", "value": 138},
      {"measurement": "total ion current (normalized to TIA1 = 1000)", "setting": "[6]", "value": 0}
    ]},
    {"substance": "Syntaxin-1B (from UniProt P61264 1-288)", "values": [
      {"measurement": "total ion current (normalized to TIA1 = 1000)", "setting": "[1]", "value": 0},
      {"measurement": "total ion current (normalized to TIA1 = 1000)", "setting": "[2]", "value": 99.7},
      {"measurement": "total ion current (normalized to TIA1 = 1000)", "setting": "[3]", "value": 0},
      {"measurement": "total ion current (normalized to TIA1 = 1000)", "setting": "[4]", "value": 0},
      {"measurement": "total ion current (normalized to TIA1 = 1000)", "setting": "[5]", "value": 26.9},
      {"measurement": "total ion current (normalized to TIA1 = 1000)", "setting": "[6]", "value": 0}
    ]},
    {"substance": "Thy-1 membrane glycoprotein (from UniProt P01831 20-131)", "values": [
      {"measurement": "total ion current (normalized to TIA1 = 1000)", "setting": "[1]", "value": 0},
      {"measurement": "total ion current (normalized to TIA1 = 1000)", "setting": "[2]", "value": 75.2},
      {"measurement": "total ion current (normalized to TIA1 = 1000)", "setting": "[3]", "value": 57.7},
      {"measurement": "total ion current (normalized to TIA1 = 1000)", "setting": "[4]", "value": 0},
      {"measurement": "total ion current (normalized to TIA1 = 1000)", "setting": "[5]", "value": 0},
      {"measurement": "total ion current (normalized to TIA1 = 1000)", "setting": "[6]", "value": 0}
    ]}
  ]
}
